The source of these data is the Human Domainome abundance scans (Beltran et al. 2025).

± gives the uncertainty stated by the source.

B1: Cytoplasmic polyadenylation element-binding protein 2, residues 513 to 575; numbered along this chain, Q7Z5Q1 (parent)
chain: KRVEVKPYVLDDQMCDECQGARCGGKFAPFFCANVTCLQYYCEFCWANIHSRAGREFHKPLVK
B2: POU domain, class 3, transcription factor 2, residues 356 to 411; numbered along this chain, P20265 (parent)
chain: KKRTSIEVSVKGALESHFLKCPKPSAQEITSLADSLQLEKEVVRVWFCNRRQKEKR

In one data set the parent is B1. The data set is described as follows: abundance fitness (aPCA) (normalised: wild type 0, dead -1); higher = more abundant; growth selection in yeast, the domain comes from the species named. Conditions: Homo sapiens.
In the case of KRVEVKPYVLDDQMCDECQGARCGGKFAPFFCANVTCLQYYCEFCWANIHSRAGREFHKWLVK [P60W], the abundance fitness is -0.817 ± 0.069.

For the variant KRVEVKPYVLDDQMCDECQGARCGGKFAPFFCANVTCLQYYCEFCWANIHSRAGREFHKPLSK [V62S], the abundance fitness is -0.081 ± 0.34. In the case of KRVEVKPYVLDDQMCDECQGARCGGKFAPFFCANVTCLQYYCEFCWANIHSRAGREFHKPLDK [V62D], the abundance fitness is -0.164 ± 0.22.

Regarding KRVEVKPYVLDDQMCDECQGARCGGKFAPFFCANVTCLQYYCEFCWANIHSRAGREFHKPLRK [V62R], the abundance fitness came to 0.105 ± 0.42. In the case of KRVEVKPYVLDDQMCDECQGARCGGKFAPFFCANVTCLQYYCEFCWANIHSRAGREFHKPLMK [V62M], the abundance fitness amounted to 0.081 ± 0.22. On to KRVEVKPYVLDDQMCDECQGARCGGKFAPFFCANVTCLQYYCEFCWANIHSRAGREFHKPLAK [V62A], for which the abundance fitness is -0.193 ± 0.47. Turning to KRVEVKPYVLDDQMCDECQGARCGGKFAPFFCANVTCLQYYCEFCWANIHSRAGREFHKPLIK [V62I], the abundance fitness is -0.103 ± 0.1. Same read-out and setting: as for KRVEVKPYVLDDQMCDECQGARCGGKFAPFFCANVTCLQYYCEFCWANIHSRAGREFHKPLVW [K63W], the figure is -0.415 ± 0.09; as for KRVEVKPYVLDDQMCDECQGARCGGKFAPFFCANVTCLQYYCEFCWANIHSRAGREFHKPLVH [K63H], -0.014 ± 0.11.

Take KRVEVKPYVLDDQMCDECQGARCGGKFAPFFCANVTCLQYYCEFCWANIHSRAGREFHKPLVE [K63E]: the abundance fitness worked out at 0.014 ± 0.082. On the same count and under the same terms, as for KRVEVKPYVLDDQMCDECQGARCGGKFAPFFCANVTCLQYYCEFCWANIHSRAGREFHKPLVR [K63R], the figure is -0.105 ± 0.092; as for KRVEVKPYVLDDQMCDECQGARCGGKFAPFFCANVTCLQYYCEFCWANIHSRAGREFHKPLVM [K63M], -0.111 ± 0.14; as for KRVEVKPYVLDDQMCDECQGARCGGKFAPFFCANVTCLQYYCEFCWANIHSRAGREFHKPLVS [K63S], -0.034 ± 0.13. For the variant KRVEVKPYVLDDQMCDECQGARCGGKFAPFFCANVTCLQYYCEFCWANIHSRAGREFHKPLVT [K63T], the abundance fitness is -0.079 ± 0.085. Same read-out and setting: as for KRVEVKPYVLDDQMCDECQGARCGGKFAPFFCANVTCLQYYCEFCWANIHSRAGREFHKPLVP [K63P], the figure is 0.367 ± 0.3. For the variant KRVEVKPYVLDDQMCDECQGARCGGKFAPFFCANVTCLQYYCEFCWANIHSRAGREFHKPLVA [K63A], the abundance fitness was 0.125 ± 0.16. Still for that read-out and setting: as for KRVEVKPYVLDDQMCDECQGARCGGKFAPFFCANVTCLQYYCEFCWANIHSRAGREFHKPLVN [K63N], the figure is -0.091 ± 0.11.

For the variant KRVEVKPYVLDDQMCDECQGARCGGKFAPFFCANVTCLQYYCEFCWANIHSRAGREFHKPLVV [K63V], the abundance fitness is -0.112 ± 0.062. In the case of KRVEVKPYVLDDQMCDECQGARCGGKFAPFFCANVTCLQYYCEFCWANIHSRAGREFHKPLVD [K63D], the abundance fitness is -0.641 ± 0.21. Take KRVEVKPYVLDDQMCDECQGARCGGKFAPFFCANVTCLQYYCEFCWANIHSRAGREFHKPLVG [K63G]: the abundance fitness worked out at 0.1 ± 0.1. As to KRVEVKPYVLDDQMCDECQGARCGGKFAPFFCANVTCLQYYCEFCWANIHSRAGREFHKPLVQ [K63Q], the abundance fitness is -0.044 ± 0.11. Same read-out and setting: as for KRVEVKPYVLDDQMCDECQGARCGGKFAPFFCANVTCLQYYCEFCWANIHSRAGREFHKPLVY [K63Y], the figure is -0.408 ± 0.14; as for KRVEVKPYVLDDQMCDECQGARCGGKFAPFFCANVTCLQYYCEFCWANIHSRAGREFHKPAVK [L61A], 0.092 ± 0.044; as for KRVEVKPYVLDDQMCDECQGARCGGKFAPFFCANVTCLQYYCEFCWANIHSRAGREFHKPQVK [L61Q], 0.116 ± 0.057. Take KRVEVKPYVLDDQMCDECQGARCGGKFAPFFCANVTCLQYYCEFCWANIHSRAGREFHKPRVK [L61R]: the abundance fitness is -0.014 ± 0.042.

Regarding KRVEVKPYVLDDQMCDECQGARCGGKFAPFFCANVTCLQYYCEFCWANIHSRAGREFHKPVVK [L61V], the abundance fitness was 0.091 ± 0.041. Still for that read-out and setting: as for KRVEVKPYVLDDQMCDECQGARCGGKFAPFFCANVTCLQYYCEFCWANIHSRAGREFHKPHVK [L61H], the figure is -0.048 ± 0.11; as for KRVEVKPYVLDDQMCDECQGARCGGKFAPFFCANVTCLQYYCEFCWANIHSRAGREFHKPSVK [L61S], 0.12 ± 0.04; as for KRVEVKPYVLDDQMCDECQGARCGGKFAPFFCANVTCLQYYCEFCWANIHSRAGREFHKPKVK [L61K], 0.065 ± 0.064. Regarding KRVEVKPYVLDDQMCDECQGARCGGKFAPFFCANVTCLQYYCEFCWANIHSRAGREFHKPWVK [L61W], the abundance fitness is -0.137 ± 0.045. Turning to KRVEVKPYVLDDQMCDECQGARCGGKFAPFFCANVTCLQYYCEFCWANIHSRAGREFHKPDVK [L61D], the abundance fitness was 0.04 ± 0.083.

On to KRVEVKPYVLDDQMCDECQGARCGGKFAPFFCANVTCLQYYCEFCWANIHSRAGREFHKPMVK [L61M], for which the abundance fitness was found to be 0.012 ± 0.056. Still for that read-out and setting: as for KRVEVKPYVLDDQMCDECQGARCGGKFAPFFCANVTCLQYYCEFCWANIHSRAGREFHKPEVK [L61E], the figure is 0.146 ± 0.051. On the same count and under the same terms, then KRVEVKPYVLDDQMCDECQGARCGGKFAPFFCANVTCLQYYCEFCWANIHSRAGREFHKPTVK [L61T], with 0.076 ± 0.052. The same measure, in the same setting: then KRVEVKPYVLDDQMCDECQGARCGGKFAPFFCANVTCLQYYCEFCWANIHSRAGREFHKPNVK [L61N], with 0.033 ± 0.077; and KRVEVKPYVLDDQMCDECQGARCGGKFAPFFCANVTCLQYYCEFCWANIHSRAGREFHKPYVK [L61Y], with -0.197 ± 0.081. With KRVEVKPYVLDDQMCDECQGARCGGKFAPFFCANVTCLQYYCEFCWANIHSRAGREFHKPGVK [L61G], the abundance fitness was determined as 0.076 ± 0.042. Take KRVEVKPYVLDDQMCDECQGARCGGKFAPFFCANVTCLQYYCEFCWANIHSRAGREFHKPFVK [L61F]: the abundance fitness was -0.11 ± 0.079. In the case of KRVEVKPYVLDDQMCDECQGARCGGKFAPFFCANVTCLQYYCEFCWANIHSRAGREFHKPIVK [L61I], the abundance fitness stood at 0.071 ± 0.072. The same measure, in the same setting: then KRVEVKPYVLDDQMCDECQGARCGGKFAPFFCANVTCLQYYCEFCWANIHSRAGREFHKPCVK [L61C], with 0.091 ± 0.059.

The variants in another data set derive from B2. Described as above. Conditions: Homo sapiens.
For the variant KKRTSIEVSVKGALESHFLKCPKPSAQETTSLADSLQLEKEVVRVWFCNRRQKEKR [I29T], the abundance fitness is -0.593 ± 0.17. Consider KKRTSIEVSVKGHLESHFLKCPKPSAQEITSLADSLQLEKEVVRVWFCNRRQKEKR [A13H], for which the abundance fitness was -0.196 ± 0.2. KKRTSIEVSVKGALESHFLKCPKPSAQEITSLADSLQEEKEVVRVWFCNRRQKEKR [L38E]: the abundance fitness was -0.696 ± 0.14.
